The target of one assay is WIPI2 (endogenous, HeLa). Description: GFP-TRAP pull-down, quantified immunoblot. The conditions noted are these: HeLa cells starved for 1 hr; n = 3; parent: est. 0.10; read off a plot. A general note: A western blot detects proteins with antibodies after separation by electrophoresis.
For assay [1], the target named is RAB11A (endogenous, HeLa) (UniProt P62491). Briefly: GFP-TRAP pull-down, quantified immunoblot. The conditions noted are these: HeLa cells starved for 2 hr; n = 5; parent: est. 1.0; read off a plot.
Assay [2] deals with T1, recombinant human HIS-RAB11A, P62491.
T1 chain: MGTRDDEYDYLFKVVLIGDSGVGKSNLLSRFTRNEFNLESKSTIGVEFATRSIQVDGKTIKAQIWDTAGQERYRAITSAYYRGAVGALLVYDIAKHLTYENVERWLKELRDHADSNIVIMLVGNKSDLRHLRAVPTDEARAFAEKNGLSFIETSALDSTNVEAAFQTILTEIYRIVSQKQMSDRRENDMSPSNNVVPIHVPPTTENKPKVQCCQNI
Description: liposome sedimentation assay. The conditions noted are these: chain shown with the change; in vitro; RAB11A-containing liposomes; n = 4; parent: est. 100; read off a plot.

Numbering of substitutions follows the chain as printed. Names may count otherwise.

Consider GFP-RAB11A (from UniProt P62491) Q70L, for which the response in the assay with WIPI2 (endogenous, HeLa) worked out at 0.15 au.

As for GFP-RAB11A (from UniProt P62491) S25N, the response in the assay with WIPI2 (endogenous, HeLa) was determined as 0.045 au.

With GFP-WIPI2 L115A; E116T, the response in assay [1] is 0.42 au.

Take GFP-WIPI2 Y120F; I121E: the response in assay [1] turned out to be 0.1 au.

B1: WIPI2-FLAG WT R224T; R225T (protein)
chain: MNLASQSGEAGAGQLLFANFNQDNTSLAVGSKSGYKFFSLSSVDKLEQIYECTDTEDVCIVERLFSSSLVAIVSLKAPRKLKVCHFKKGTEICNYSYSNTILAVKLNRQRLIVCLEESLYIHNIRDMKVLHTIRETPPNPAGLCALSINNDNCYLAYPGSATIGEVQVFDTINLRAANMIPAHDSPLAALAFDASGTKLATASEKGTVIRVFSIPEGQKLFEFTTGVKRCVSICSLAFSMDGMFLSASSNTETVHIFKLETVKEKPPEEPTTWTGYFGKVLMASTSYLPSQVTEMFNQGRAFATVRLPFCGHKNICSLATIQKIPRLLVGAADGYLYMYNLDPQEGGECALMKQHRLDGSLETTNEILDSASHDCPLVTQTYGAAAGKGTYVPSSPTRLAYTDDLGAVGGACLEDEASALRLDEDSEHPPMILRTD
As for B1, in assay [2], the percent of parent is 92 % WT.

B2: WIPI2-FLAG WT Y120F; I121E (protein)
chain: B1 chain with Y120F, I121E, T224R, T225R
Regarding B2, in assay [2], the percent of parent came out at 38 % WT.

B3: WIPI2-FLAG WT L115A; E116T (protein)
chain: B1 chain with L115A, E116T, T224R, T225R
As to B3, the percent of parent in assay [2] stood at 43 % WT.

These data come from publication PMC5896254.
